Consider two compounds from PMC7408065, “Heterodimeric Radiotracer Targeting PSMA and GRPR for Imaging of Prostate Cancer—Optimization of the Affinity towards PSMA by Linker Modification in Murine Model” (Pharmaceutics, 2020).

Series [1] is described as follows: Distribution coefficient (LogD), n-octanol/water. Format: physicochemical. Particulars: indium-111 labeled compound. Here is the method: The tube was vortexed, centrifuged and fractions (100 µL) from each phase were collected and activity was measured using a gamma counter. The experiment was repeated twice for each compound.
Series [2] concerns PC3-pip xenografts. Description: in vivo. The arrangement: species or system BALB/c nu/nu mice. The following applies: mouse. As to the method:
(§1) The in vivo experiments were performed using BALB/c nu/nu mice bearing PC3-pip xenografts. The mice were implanted with 5 × 10^6 PC3-pip cells 12 days prior to the experiments. In vivo experiments were planned and performed in accordance with the national legislation on laboratory animals’ protection and were approved by the Ethics Committee for Animal Research in Uppsala, Sweden. PC3-pip tumor-bearing mice were injected with 40 pmol (30 kBq) of [^111In]In-BQ7812 per mouse. Groups were also co-injected with 7.5 nmol of non-labeled NOTA-PEG4-RM26 and/or 7.5 nmol of non-labeled PSMA-11 to block GRPR and/or PSMA. Mice were euthanized at 1, 3 and 24 h pi. Organs of interest were collected, weighed and the activity uptake in each organ was measured using a gamma counter.

Series [3] is described as follows: in vivo. Details: species or system BALB/c nu/nu mice. The following applies: BALB/c nu/nu, mouse, 40 pmol/animal, total radioactivity; for tissue uptake at 1 h: Activity uptake; for tissue to tissue ratio at 1 h / tissue to tissue ratio at 3 h / tissue to tissue ratio at 24 h: Tumor-to-organ ratio. Here is the method: as §1

Numbered stars: 1 amine (or outer) side, 2 acyl side, 3 side chain; on linkers, the order of the positions; unused ones are H or OH. Square brackets hold non-standard residues; d marks the D form. Peptide text beside a SMILES is read from it. * marks the point of attachment. NOTA = O=C(O)CN1CCN(CC(=O)O)CCN(CC(=O)*)CC1; γGlu = O=C(O)[C@H](CCC(=O)[*:2])N[*:1]; Sta = CC(C)C[C@H](N)[C@@H](O)CC(=O)O; AEEA = NCCOCCOCC(=O)O; Aoc = NCCCCCCCC(=O)O; CO = O=C([*:1])[*:2]

For orientation: logD means lipophilicity at a set pH, counting ionised and neutral species. Read a low logD as a more hydrophilic compound. For `CC(C)C[C@H](NC(=O)C[C@H](O)[C@H](CC(C)C)NC(=O)[C@H](Cc1c[nH]cn1)NC(=O)CNC(=O)[C@@H](NC(=O)[C@H](C)NC(=O)[C@H](Cc1c[nH]c2ccccc12)NC(=O)[C@H](CCC(N)=O)NC(=O)[C@@H](Cc1ccccc1)NC(=O)COCCOCCNC(=O)[C@H](CCCCNC(=O)CN1CCN(CC(=O)O)CCN(CC(=O)O)CC1)NC(=O)[C@H](Cc1ccccc1)NC(=O)CCCCCCCNC(=O)CC[C@H](NC(=O)N[C@@H](CCC(=O)O)C(=O)O)C(=O)O)C(C)C)C(N)=O` [BQ7812] ({Glu-CO-γGlu-Aoc}-FK(NOTA)[AEEA][dF]QWAVGH[Sta]L-NH2), in series [1], the logD was -1.44.
Broadly, the tissue uptake is the percentage of the injected dose found per gram of tissue. Regarding `CC(C)C[C@H](NC(=O)C[C@H](O)[C@H](CC(C)C)NC(=O)[C@H](Cc1c[nH]cn1)NC(=O)CNC(=O)[C@@H](NC(=O)[C@H](C)NC(=O)[C@H](Cc1c[nH]c2ccccc12)NC(=O)[C@H](CCC(N)=O)NC(=O)[C@@H](Cc1ccccc1)NC(=O)COCCOCCNC(=O)[C@H](CCCCNC(=O)CN1CCN(CC(=O)O)CCN(CC(=O)O)CC1)NC(=O)[C@H](Cc1ccccc1)NC(=O)CCCCCCCNC(=O)CC[C@H](NC(=O)N[C@@H](CCC(=O)O)C(=O)O)C(=O)O)C(C)C)C(N)=O` [[^111In]In-BQ7812, metal not drawn] ({Glu-CO-γGlu-Aoc}-FK(NOTA)[AEEA][dF]QWAVGH[Sta]L-NH2), in series [2], the “tumor-to-liver ratio” value is recorded as “over five”. Further, the results for the tissue uptake at 1 h in series [3] (Lung) and in series [3] (Pancreas) were 1.34 %ID/g and 5.83 %ID/g, respectively. Besides, the tissue to tissue ratio at 1 h in series [3] (Blood) amounted to 11.7 ± 2.3; in series [3] (Bone), 24.5 ± 3.25; in series [3] (Kidney), 0.27 ± 0.07; in series [3] (Liver) it was 4.56 ± 0.77; in series [3] (Lung) it was 12.3 ± 1.34; in series [3] (Muscle), 41 ± 7.76. The tissue to tissue ratio at 1 h was 2.77 ± 0.43 in series [3] (Pancreas); 18.7 ± 2.6 in series [3] (Salivary glands); 9.31 ± 1.8 in series [3] (Small intestine); 11.5 ± 2.37 in series [3] (Spleen); 12.5 ± 2.36 in series [3] (Stomach). The tissue to tissue ratio at 3 h in series [3] (Blood) is 55.5 ± 15.6; in series [3] (Bone) it was 35.1 ± 25.7; in series [3] (Kidney), 0.39 ± 0.09; in series [3] (Liver), 3.08 ± 1; in series [3] (Lung) it was 25.3 ± 10; in series [3] (Muscle) it was 53.3 ± 24.4. For the same compound, the tissue to tissue ratio at 3 h in series [3] (Pancreas) came out at 10.9 ± 3.05; in series [3] (Salivary glands), 20.6 ± 7.98; in series [3] (Small intestine), 13.4 ± 3.68; in series [3] (Spleen), 20.8 ± 5.1; in series [3] (Stomach), 18.3 ± 2.8. In addition, the tissue to tissue ratio at 24 h came to 68.9 ± 10.4 in series [3] (Blood); 10.9 ± 2.46 in series [3] (Bone); 0.18 ± 0.02 in series [3] (Kidney); 1.04 ± 0.15 in series [3] (Liver); 13.9 ± 1.65 in series [3] (Lung); 23.6 ± 4.58 in series [3] (Muscle). The tissue to tissue ratio at 24 h in series [3] (Pancreas) came out at 8.19 ± 1.92; in series [3] (Salivary glands), 7.39 ± 1.88; in series [3] (Small intestine), 5.52 ± 2.17; in series [3] (Spleen), 6.32 ± 1.59; in series [3] (Stomach), 10.5 ± 2.28.
